These results are taken from patent publication US20150368301.

The series deals with Unphosphorylated Nox1 peptide (KLKTQKIYF, "LocKiT").

Turning to PKC-βI (protein kinase C-βI), the “in vitro kinase assay, heat of phosphorylation measured by ITC; dot blot with p-STY antibody” value is reported as “The slope of the reaction following the heat of dilution confirms that the Nox1 peptide is a substrate for PKC-βI”.
